This data set relates to Bacillus subtilis. The data set can be described thus: cleaved RNA product abundance (RNA/gDNA barcode ratio) relative to median wild-type variant (ratio to wild type); higher = more accumulation of the downstream cleavage product. Conditions: experiment (reporter, strain, medium): exp 8a: truncated aprE reporter, strain BJT201 with 2% xylose (RNase J1 expressed); cleavage site: glnRA (positions -5 to +31 mutated). The gist of the method: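 Cleaved product abundance for each construct is its RNA-to-gDNA barcode ratio, scaled to the median construct carrying the unmutated site. Cleaved RNA was isolated on a gel, reverse transcribed and barcode-sequenced, with genomic DNA barcodes sequenced alongside and UMIs collapsed. The reporters were truncated aprE or tetM mRNAs with barcoded, mutagenized RNase Y cleavage-site windows integrated into the B. subtilis chromosome, and cultures grew in LB at 37°C from OD600 0.0003 to 0.3.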
In the case of “CGACATGTCCCGCTTCTTTCATTAAACCGTTAGCAACTGTTTTTCTATATACATTTACCTTTTAAGAGGAGGAAT”, the “cleaved RNA product abundance” value was determined as 0.464. As for “CGACATGTCCCGCTTCTTTCATTAAACCGTTATCAACTGTTTTGCTATATACATTTACCTTTTAAGAGGAGGAAT”, the “cleaved RNA product abundance” value was found to be 0.218.

As to “CGACATGTCCCGCTTCTTTCATTAAACCGTTTGCAACTGTTTTGCTATATACATTTACCTTTTAAGAGGAGGAAT”, the “cleaved RNA product abundance” value stood at 0.331.

For the sequence “CGACATGTCCCGCTTCTTTCATTAAACTGTTAGCAACTGTTTTGCTATATACATTTACCTTTTAAGAGGAGGAAT”, the “cleaved RNA product abundance” value amounted to 1.02. As to “CGACATGTCCCGCTTCTTTCATTAACCCGTAAGCAACTGTTTTGCTATATACATTTACCTTTTAAGAGGAGGAAT”, the “cleaved RNA product abundance” value came to 0.312. Take “CGACATGTCCCGCTTCTTTCATTAACCCGTTACCAACTGTTTTGCTATATACATTTACCTTTTAAGAGGAGGAAT”: the “cleaved RNA product abundance” value was determined as 0.162. Regarding “CGACATGTCCCGCTTCTTTCATTAACCCGTTACTCACTGTTTTGGAATATACATTTACCTTTTAAGAGGAGGAAT”, the “cleaved RNA product abundance” value stood at 0.147. “CGACATGTCCCGCTTCTTTCATTAACCCGTTAGAAACTGTTTTGCTATATACATTTACCTTTTAAGAGGAGGAAT”: the “cleaved RNA product abundance” value turned out to be 0.187. As to “CGACATGTCCCGCTTCTTTCATTAACCCGTTAGCAACTGTATTGCTATATACATTCACCTTTTAAGAGGAGGAAT”, the “cleaved RNA product abundance” value is 0.379. As to “CGACATGTCCCGCTTCTTTCATTAACCCGTTAGCAACTGTTTTGCCATATACATTTACCTTTTAAGAGGAGGAAT”, the “cleaved RNA product abundance” value was 0.158. Take “CGACATGTCCCGCTTCTTTCATTAACCCGTTAGCAACTGTTTTGCTATATAAATTTACCTTTTAAGAGGAGGAAT”: the “cleaved RNA product abundance” value came out at 0.627.

For “CGACATGTCCCGCTTCTTTCATTAACCCGTTAGCAACTGTTTTGCTATATACATTTACATTTTAAGAGGAGGAAT”, the “cleaved RNA product abundance” value came to 2.01. For “CGACATGTCCCGCTTCTTTCATTAACCCGTTAGCAACTGTTTTGCTATATACATTTACCATTTAAGAGGAGGAAT”, the “cleaved RNA product abundance” value amounted to 1.41. As for “CGACATGTCCCGCTTCTTTCATTAACCCGTTAGCAACTGTTTTGCTATATACATTTACCTTTTAAGAGGAGGAAT”, the figure is 0.819; as for “CGACATGTCCCGCTTCTTTCATTAACCCGTTAGCAACTGTTTTGCTATATACATTTACTTTTTAAGAGGAGGAAT”, 1.04. As to “CGACATGTCCCGCTTCTTTCATTAACCCGTTAGCAACTGTTTTGCTATATACCTATACCTTTTAAGAGGAGGAAT”, the “cleaved RNA product abundance” value worked out at 0.789.

With “CGACATGTCCCGCTTCTTTCATTAACCCGTTAGCAACTGTTTTGCTATATAGATTTACCTTTTAAGAGGAGGAAT”, the “cleaved RNA product abundance” value amounted to 0.53. “CGACATGTCCCGCTTCTTTCATTAACCCGTTAGCAACTGTTTTGCTATATATATTTACCTTTTAAGAGGAGGAAT”: the “cleaved RNA product abundance” value was determined as 1.16. “CGACATGTCCCGCTTCTTTCATTAACCCGTTAGCAACTTTTTTGCTATATACATTTACCTTTTAAGAGGAGGAAT”: the “cleaved RNA product abundance” value is 0.909. Regarding “CGACATGTCCCGCTTCTTTCATTAACCCGTTAGCAAGTGTTTTGCTATATACATTTACCTTTTAAGAGGAGGAAT”, the “cleaved RNA product abundance” value is 0.522.

For “CGACATGTCCCGCTTCTTTCATTAACCCGTTAGTAACTGTTTTGCTATATACATTTACCTTTTAAGAGGAGGAAT”, the “cleaved RNA product abundance” value is 0.255. As to “CGACATGTCCCGCTTCTTTCATTAACCCTTTAGCAACTGTTTTGCTATATACATTTACCTTTTAAGAGGAGGAAT”, the “cleaved RNA product abundance” value is 0.181.

For “CGACATGTCCCGCTTCTTTCATTAAGCCGTAAGCAACTGTTTTGCTATATACATTTACCTTTTAAGAGGAGGAAT”, the “cleaved RNA product abundance” value amounted to 0.519.

“CGACATGTCCCGCTTCTTTCATTAAGCCGTTACCAACTGTTTTGCTATATACATTTACCTTTTAAGAGGAGGAAT”: the “cleaved RNA product abundance” value was found to be 0.21. On to “CGACATGTCCCGCTTCTTTCATTAAGCCGTTAGCAACTGTTTTGCTATATACATTTACCTTTTAAGAGGAGGAAT”, for which the “cleaved RNA product abundance” value came to 0.855. As for “CGACATGTCCCGCTTCTTTCATTAAGCCGTTAGCAACTGTTTTGTTATATACATTTACCTTTTAAGAGGAGGAAT”, the figure is 0.364; as for “CGACATGTCCCGCTTCTTTCATTAAGCCGTTATCAACTGTTTTGCTATATACATTTACCTTTTAAGAGGAGGAAT”, 0.21; as for “CGACATGTCCCGCTTCTTTCATTAAGCCGTTATCAACTGTTTTGCTATATTCATTTACCTTTTAAGAGGAGGAAT”, 0.0648.

With “CGACATGTCCCGCTTCTTTCATTAATACATTAACAACTGTTTTGCTATATACATTTACCTTTTAAGAGGAGGAAT”, the “cleaved RNA product abundance” value came out at 0.235. As for “CGACATGTCCCGCTTCTTTCATTAATACATTAGCAACTGTTTTGCTATATACATTTACCTTTTAAGAGGAGGAAT”, the “cleaved RNA product abundance” value was 0.748.

On to “CGACATGTCCCGCTTCTTTCATTAATACATTAGCGACTTTTTTGCTATATACACTTACCTTTTAAGAGGAGGAAT”, for which the “cleaved RNA product abundance” value came to 0.352. As to “CGACATGTCCCGCTTCTTTCATTAATACGATAGCAACTGTTTTGCTATATACATTTACCTTTTAAGAGGAGGAAT”, the “cleaved RNA product abundance” value worked out at 0.935. Regarding “CGACATGTCCCGCTTCTTTCATTAATACGTAAGCAACTGTTTTGCTATATACATTTACCTTTTAAGAGGAGGAAT”, the “cleaved RNA product abundance” value came out at 0.225. Regarding “CGACATGTCCCGCTTCTTTCATTAATACGTTAACAACTGTTTTGCTATATACATTTACCTTTTAAGAGGAGGAAT”, the “cleaved RNA product abundance” value came to 0.195. On to “CGACATGTCCCGCTTCTTTCATTAATACGTTACCAACTGTTTTGCTATATACATTTACCTTTTAAGAGGAGGAAT”, for which the “cleaved RNA product abundance” value came to 0.215. In the case of “CGACATGTCCCGCTTCTTTCATTAATACGTTAGAAACTGTTTTGCTATATACATTTACCTTTTAAGAGGAGGAAT”, the “cleaved RNA product abundance” value is 0.292. With “CGACATGTCCCGCTTCTTTCATTAATACGTTAGCAAATGTTTTGCTATATACATTTACCTTTTAAGAGGAGGAAT”, the “cleaved RNA product abundance” value is 1.26. As for “CGACATGTCCCGCTTCTTTCATTAATACGTTAGCAACTATTTTGCTATATACATTTACCTTTTAAGAGGAGGAAT”, the “cleaved RNA product abundance” value is 1.33. For “CGACATGTCCCGCTTCTTTCATTAATACGTTAGCAACTGATTTGCTATATACATTTACCTTTTAAGAGGAGGAAT”, the “cleaved RNA product abundance” value is 1.24. For “CGACATGTCCCGCTTCTTTCATTAATACGTTAGCAACTGTTATGCTATATACATTTACCTTTTAAGAGGAGGAAT”, the “cleaved RNA product abundance” value turned out to be 0.886. As to “CGACATGTCCCGCTTCTTTCATTAATACGTTAGCAACTGTTTAGCTATATACATTTACCTTTTAAGAGGAGGAAT”, the “cleaved RNA product abundance” value worked out at 0.376. Regarding “CGACATGTCCCGCTTCTTTCATTAATACGTTAGCAACTGTTTTACTATATACATTTACCTTTTAAGAGGAGGAAT”, the “cleaved RNA product abundance” value was 0.547. As for “CGACATGTCCCGCTTCTTTCATTAATACGTTAGCAACTGTTTTGATATATACATTTACCTTTTAAGAGGAGGAAT”, the figure is 0.527. Consider “CGACATGTCCCGCTTCTTTCATTAATACGTTAGCAACTGTTTTGCCATATACATTTACCTTTTAAGAGGAGGAAT”, for which the “cleaved RNA product abundance” value turned out to be 0.23. As to “CGACATGTCCCGCTTCTTTCATTAATACGTTAGCAACTGTTTTGCTAAATACATTTACCTTTTAAGAGGAGGAAT”, the “cleaved RNA product abundance” value stood at 0.266. For “CGACATGTCCCGCTTCTTTCATTAATACGTTAGCAACTGTTTTGCTACATACATTTACCTTTTAAGAGGAGGAAT”, the “cleaved RNA product abundance” value was determined as 0.381.

Regarding “CGACATGTCCCGCTTCTTTCATTAATACGTTAGCAACTGTTTTGCTATAAACATTTACCTTTTAAGAGGAGGAAT”, the “cleaved RNA product abundance” value was determined as 0.505. Regarding “CGACATGTCCCGCTTCTTTCATTAATACGTTAGCAACTGTTTTGCTATATAAATTTACCTTTTAAGAGGAGGAAT”, the “cleaved RNA product abundance” value amounted to 1.02.

With “CGACATGTCCCGCTTCTTTCATTAATACGTTAGCAACTGTTTTGCTATATACATGTACCTTTTAAGAGGAGGAAT”, the “cleaved RNA product abundance” value was 0.369. As for “CGACATGTCCCGCTTCTTTCATTAATACGTTAGCAACTGTTTTGCTATATACATTCACCTTTTAAGAGGAGGAAT”, the figure is 0.695. On to “CGACATGTCCCGCTTCTTTCATTAATACGTTAGCAACTGTTTTGCTATATACATTTACCATTTAAGAGGAGGAAT”, for which the “cleaved RNA product abundance” value was found to be 0.353. As for “CGACATGTCCCGCTTCTTTCATTAATACGTTAGCAACTGTTTTGCTATATACATTTACCTTTTAAGAGGAGGAAT”, the figure is 0.97. “CGACATGTCCCGCTTCTTTCATTAATACGTTAGCAACTGTTTTGCTATATACATTTACTTTTTAAGAGGAGGAAT”: the “cleaved RNA product abundance” value was determined as 0.472. In the case of “CGACATGTCCCGCTTCTTTCATTAATACGTTAGCAACTGTTTTGCTATATACATTTATCTTTTAAGAGGAGGAAT”, the “cleaved RNA product abundance” value stood at 1.51.

Regarding “CGACATGTCCCGCTTCTTTCATTAATACGTTAGCAACTGTTTTGCTATATACGTTTACCTTTTAAGAGGAGGAAT”, the “cleaved RNA product abundance” value amounted to 0.284. As for “CGACATGTCCCGCTTCTTTCATTAATACGTTAGCAACTGTTTTGCTATATAGATTTACCTTTTAAGAGGAGGAAT”, the “cleaved RNA product abundance” value is 0.956. As for “CGACATGTCCCGCTTCTTTCATTAATACGTTAGCAACTGTTTTGCTATATATATTTACCTTTTAAGAGGAGGAAT”, the figure is 1.83. With “CGACATGTCCCGCTTCTTTCATTAATACGTTAGCAACTGTTTTGCTATATCCATTTACCTTTTAAGAGGAGGAAT”, the “cleaved RNA product abundance” value worked out at 0.193.

On to “CGACATGTCCCGCTTCTTTCATTAATACGTTAGCAACTGTTTTGCTATTTACATTTACCTTTTAAGAGGAGGAAT”, for which the “cleaved RNA product abundance” value stood at 0.232. Regarding “CGACATGTCCCGCTTCTTTCATTAATACGTTAGCAACTGTTTTGTTATATACATTTACCTTTTAAGAGGAGGAAT”, the “cleaved RNA product abundance” value was found to be 0.372. For the sequence “CGACATGTCCCGCTTCTTTCATTAATACGTTAGCAACTGTTTTTCTATATACATTTACCTTTTAAGAGGAGGAAT”, the “cleaved RNA product abundance” value is 0.455.

The values above are taken from the supplement of paper PMC11780869.
